Drawing on patent US20120316071A1 (published 2012), this text covers ECL signal for two molecules.

Assay [1] has as its target T1, rHuman IGF-1 sR, CF (R&D Systems Cat#391-GR) (human, UniProt P08069 31-932).
T1 construct: Bought soluble receptor; The column head prints only 'IGF-1'; also called insulin-like growth factor-1 soluble receptor
Kind of assay: ECL Multispot (MSD) assay, antigen spotted on plate, 10 nM Fab; blank spot of this row 487.

For assay [2], the target named is T2, rHuman P-Cadherin/Fc Chimera, CF (R&D Systems Cat#861-PC) (human, UniProt P22223 108-654).
T2 construct: Bought reagent; Fc part of the bought chimera not given
The description is as above.

Assay [3] deals with T3, rHuman Erythropoietin R/Fc Chimera, CF (R&D Systems Cat#963-ER) (human, UniProt P19235 25-250).
T3 construct: Bought reagent; also called EPO R; EPO R/Fc; Fc part of the bought chimera not given
T3 sequence (looked up): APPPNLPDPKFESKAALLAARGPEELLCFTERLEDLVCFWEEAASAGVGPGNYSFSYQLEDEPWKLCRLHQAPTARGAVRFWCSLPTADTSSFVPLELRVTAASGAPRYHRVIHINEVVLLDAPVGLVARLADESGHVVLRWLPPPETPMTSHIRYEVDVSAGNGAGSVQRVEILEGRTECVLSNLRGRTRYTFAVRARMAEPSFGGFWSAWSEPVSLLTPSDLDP
Described as above.

For assay [4], the target named is T4, rHuman ErbB2/Fc Chimera, CF (R&D Systems Cat#1129-ER) (human, UniProt P04626 23-652).
T4 construct: Bought reagent; also called human epidermal growth factor 2 receptor; Fc part of the bought chimera not given
The assay is described as above.

Assay [5] concerns the target T5, rHuman EGF R/Fc Chimera, CF (R&D Systems Cat#344-ER) (human, UniProt P00533 25-645).
T5 construct: Bought reagent; also called epidermal growth factor receptor; Fc part of the bought chimera not given
The description is as above.

Assay [6] has as its target T6, rHuman HGF R/c-MET/Fc Chimera, CF (R&D Systems Cat#358-MT/CF) (human, UniProt P08581 25-932).
T6 construct: Bought reagent; also called HGF R/Fc; hepatocyte growth factor receptor; Fc part of the bought chimera not given
Described as above.

The target of assay [7] is T7, rHuman Notch-1/Fc Chimera, CF (R&D Systems Cat#3647-TK) (human, UniProt P46531 19-526).
T7 construct: Bought reagent; Fc part of the bought chimera not given
Described as above.

The target in assay [8] is T8, rHuman CD44/Fc Chimera, CF (R&D Systems Cat#3660-CD) (human, UniProt P16070 21-220).
T8 construct: Bought reagent; Fc part of the bought chimera not given
The assay is described as above.

In assay [9] the target is T9, rHuman P-Cadherin/Fc Chimera, CF (R&D Systems Cat#861-PC) (human, UniProt P22223 108-654).
T9 construct: Bought from R&D Systems; not shown: Fc of the bought chimera
Nature of the assay: MSD multispot ECL, antigen spotted on plate, Fab 44.1 nM; blank spot 200.

Assay [10] has as its target T10, Recombinant Human DLL4 (R&D Systems Cat#1506-D4/CF) (human, UniProt Q9NR61 27-524).
T10 construct: Bought from R&D Systems; also called rHuman DLL4; delta-like protein 4
Nature of the assay: MSD multispot ECL, antigen spotted on plate, Fab 176.3 nM; blank spot 346.

In assay [11] the target is T11, rHuman ErbB2/Fc Chimera, CF (R&D Systems Cat#1129-ER) (human, UniProt P04626 23-652).
T11 construct: Bought from R&D Systems; also called human epidermal growth factor 2 receptor (ErbB2); not shown: Fc of the bought chimera
The description is as above.

Assay [12] concerns the target T12, rHuman EGF R/Fc Chimera, CF (R&D Systems Cat#344-ER) (human, UniProt P00533 25-645).
T12 construct: Bought from R&D Systems; also called epidermal growth factor receptor (EGF R); not shown: Fc of the bought chimera
Described as above.

Assay [13] addresses T13, rHuman HGF R/c-MET/Fc Chimera, CF (R&D Systems Cat#358-MT/CF) (human, UniProt P08581 25-932).
T13 construct: Bought from R&D Systems; also called HGF R/Fc; hepatocyte growth factor receptor (HGF R/c-Met); not shown: Fc of the bought chimera
The description is as above.

Assay [14] addresses T14, rHuman Notch-1/Fc Chimera, CF (R&D Systems Cat#3647-TK) (human, UniProt P46531 19-526).
T14 construct: Bought from R&D Systems; not shown: Fc of the bought chimera
The description is as above.

Assay [15] concerns the target T15, rHuman CD44/Fc Chimera, CF (R&D Systems Cat#3660-CD) (human, UniProt P16070 21-220).
T15 construct: Bought from R&D Systems; not shown: Fc of the bought chimera
The assay is described as above.

The target of assay [16] is T16, rHuman IGF-1 sR, (IGF-1 sR), CF (R&D Systems Cat#391-GR) (human, UniProt P08069 31-932).
T16 construct: Bought from R&D Systems and called a soluble receptor; also called insulin-like growth factor-1 soluble receptor
The description is as above.

The target in assay [17] is T9, rHuman P-Cadherin/Fc Chimera, CF (R&D …). The assay is described as above.
In assay [18] the target is T17, rHuman Erythropoietin R/Fc Chimera, CF (R&D Systems Cat#963-ER) (human, UniProt P19235 25-250).
T17 construct: Bought from R&D Systems; also called EPO R/Fc; Epo R/Fc chimera; not shown: Fc of the bought chimera
T17 sequence (looked up): T3 sequence (looked up)
The description is as above.

B1: Fab VH1-46_IGHD6-6*01_IGHJ1*01 S102A/S103P/S104F (APF) & L6_IGKJ1*01 (Fab, V domains shown)
VH: QVQLVQSGAEVKKPGASVKVSCKASGYTFTSYYMHWVRQAPGQGLEWMGIINPSGGSTSYAQKFQGRVTMTRDTSTSTVYMELSSLRSEDTAVYYCAREEYAPFSAEYFQHWGQGTLVTVSS
VL: not shown
notes: Tested as a Fab made in E. coli; also called H:APF & L:wt; APF triple mutant
On to B1, for which the ECL signal in assay [1] was 453; in [2] it was 384; in assay [3], 326; in assay [4], 381; in [5], 206; in assay [6] it was 379. For the same molecule, the ECL signal in assay [7] was 450; in assay [8], 363.

B2: Fab VH1-46_IGHD3-10*01_IGHJ4*01 & B3_IGKJ1*01 (Fab, V domains shown)
VH: QVQLVQSGAEVKKPGASVKVSCKASGYTFTSYYMHWVRQAPGQGLEWMGIINPSGGSTSYAQKFQGRVTMTRDTSTSTVYMELSSLRSEDTAVYYCAREYYYGSGSYYNDYFDYWGQGTLVTVSS
VL: not shown
notes: Tested as a Fab made in E. coli; VH was cloned into Plasmid A (CH1 constant region, His6 and Flag tags); The kappa VL was cloned into Plasmid C (kappa CL)
As for B2, the ECL signal turned out to be 343 in [9]; 460 in assay [10]; 448 in [11]; 428 in assay [12]; 418 in assay [13]; 664 in [14]. The ECL signal worked out at 376 in [15], 393 in assay [16], 532 in assay [17] and 3520 in assay [18].
